The source of these data is patent US20080176247A1 (INDUSTRIAL TECHNOLOGY RESEARCH INSTITUTE, published 2008).

The test addresses T1, purified recombinant extracellular domain of EGF receptor (EGFR-ECD; Research Diagnostics, Inc.) (UniProt P00533 25-645, limits assumed).
T1 construct: extracellular domain; Bought protein
The test can be described thus: SPR (BIAcore X), EGFR-ECD immobilized on C1 chip, 1:1 Langmuir fit. The protocol: Each antibody was injected at indicated concentrations and flowed over a surface chip with immobilized EGFR extracellular domain at a flow rate of 10 μl/min.
The surface was regenerated by injection of 5 μl of 10 mM glycine-HCl, pH 3.5. Sensorgrams were obtained at each concentration and were evaluated using the program, BIA Evaluation 3.2. Binding data were titled with a 1:1 Langmuir binding model to calculate the equilibrium dissociation constant, KD, which was defined as the ratio of dissociation rate (koff)/association rate (kₒₙ).
In general terms: Surface plasmon resonance follows binding to a sensor surface in real time, without labels.

B1: erb_scFv (scFv, not shown: small tags and cut ends)
scFv: MAEVQLLESGGGLVQPGGSLRLSCAASGFTFSSYAMSWVRQAPGKGLEWVSDIGASGSATSYADSVKGRFTISRDNSKNTLYLQMNSLRAEDTAVYYCAKSTTTFDYWGQGTLVTVSSGGGGSGGGGSGGGGSTDIQMTQSPSSLSASVGDRVTITCRASQSISSYLNWYQQKPGKAPKLLIYDASALQSGVPSRFSGSGSGTDFTLTISSLQPEDFATYYCQQYADYPTTFGQGTKVEIKR
notes: Made in NS0 cells for the SPR work
Consider B1, for which the Kd – broadly, the constant that tells how readily two partners part at equilibrium – is 4960 nM; the koff – broadly, the first-order rate constant of dissociation – is 0.0741 s⁻¹; the on-rate constant (kon) (in general, the second-order rate constant of association) worked out at 15000 M⁻¹ s⁻¹.

B2: erb_scFv-Fc (Fc fusion)
chain: MAEVQLLESGGGLVQPGGSLRLSCAASGFTFSSYAMSWVRQAPGKGLEWVSDIGASGSATSYADSVKGRFTISRDNSKNTLYLQMNSLRAEDTAVYYCAKSTTTFDYWGQGTLVTVSSGGGGSGGGGSGGGGSTDIQMTQSPSSLSASVGDRVTITCRASQSISSYLNWYQQKPGKAPKLLIYDASALQSGVPSRFSGSGSGTDFTLTISSLQPEDFATYYCQQYADYPTTFGQGTKVEIKR
notes: not shown: Fc region
Take B2: the equilibrium dissociation constant (Kd) was 104 nM, the off-rate constant (koff) was found to be 0.00944 s⁻¹ and the kon is 90900 M⁻¹ s⁻¹.
